The target in test [1] is guinea pig NK1 receptor (guinea pig) (UniProt P30547). Kind of test: cell-based or functional assay.
The target in test [2] is µ opioid receptor of the guinea pig isolated ileum (guinea pig) (UniProt P97266). Kind of test: cell-based or functional assay.
For test [3], the target named is δ opioid receptor of the mouse isolated vas deferens (mouse) (UniProt P32300). Briefly: cell-based or functional assay.
Test [4] addresses rat µ opioid receptor (rat) (UniProt P33535). Briefly: cell-based or functional assay.
The target is the same in test [5]. Kind of test: radioligand saturation, rMOR membranes.
The target is the same in test [6]. Kind of test: cell-based or functional assay. The source holds these as a separate data set.
Test [7] concerns the target human δ opioid receptor (human) (UniProt P41143). Kind of test: cell-based or functional assay.
Test [8] shares this target. Briefly: radioligand competition vs [3H]DPDPE, membranes of hDOR cells. For orientation: Loss of bound radioactivity is the signal in a displacement assay; it reports binding, not function.
The target of test [9] is rat NK1 receptor (rat) (UniProt P14600). Briefly: radioligand competition vs [3H]substance P, membranes of rNK1 CHO cells.
The target in test [10] is rat µ opioid receptor (rat) (UniProt P33535). Briefly: radioligand competition vs [3H]DAMGO, membranes of rMOR cells.
Test [11] addresses human NK1 receptor (human) (UniProt P25103). Kind of test: competition vs [3H]Substance P, hNK1 CHO cell membranes.
Test [12] addresses rat NK1 receptor (rat) (UniProt P14600). Kind of test: competition vs [3H]Substance P, rNK1 CHO cell membranes.
Test [13] has as its target human δ opioid receptor (human) (UniProt P41143). Briefly: radioligand saturation, hDOR cell membranes.
Test [14] has as its target human NK1 receptor (human) (UniProt P25103). Briefly: radioligand competition vs [3H]substance P, membranes of hNK1 CHO cells.
In test [15] the target is rat µ opioid receptor (rat) (UniProt P33535). Briefly: competition vs [3H]DAMGO, rMOR cell membranes.
Test [16] deals with human δ opioid receptor (human) (UniProt P41143). Briefly: competition vs [3H]DPDPE, hDOR cell membranes.
Test [17] shares this target. Kind of test: radioligand saturation, hDOR membranes.

The Kd is the free concentration of one partner at which half of the binding sites on the other are occupied at equilibrium, for simple one-to-one binding. Low readings indicate tighter binding, high ones weaker binding. The term Ki denotes a measure of affinity in units of concentration, obtained from inhibition or displacement. Read a low Ki as tighter binding.

Where two headings read alike, the source gives them in different places.

Sequence of rat NK1 receptor (rat) (P14600 whole entry): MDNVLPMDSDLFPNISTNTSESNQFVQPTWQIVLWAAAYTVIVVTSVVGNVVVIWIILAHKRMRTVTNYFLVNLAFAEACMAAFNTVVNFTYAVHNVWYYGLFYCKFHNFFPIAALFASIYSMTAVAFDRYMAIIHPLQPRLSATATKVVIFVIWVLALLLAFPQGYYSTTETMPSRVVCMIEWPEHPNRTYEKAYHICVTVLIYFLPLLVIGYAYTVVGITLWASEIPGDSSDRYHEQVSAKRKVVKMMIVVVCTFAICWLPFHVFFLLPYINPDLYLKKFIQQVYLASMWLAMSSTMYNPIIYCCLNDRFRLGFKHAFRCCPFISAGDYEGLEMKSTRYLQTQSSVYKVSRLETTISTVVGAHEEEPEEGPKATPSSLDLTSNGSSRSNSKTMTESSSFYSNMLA
Sequence of human NK1 receptor (human) (P25103 whole entry): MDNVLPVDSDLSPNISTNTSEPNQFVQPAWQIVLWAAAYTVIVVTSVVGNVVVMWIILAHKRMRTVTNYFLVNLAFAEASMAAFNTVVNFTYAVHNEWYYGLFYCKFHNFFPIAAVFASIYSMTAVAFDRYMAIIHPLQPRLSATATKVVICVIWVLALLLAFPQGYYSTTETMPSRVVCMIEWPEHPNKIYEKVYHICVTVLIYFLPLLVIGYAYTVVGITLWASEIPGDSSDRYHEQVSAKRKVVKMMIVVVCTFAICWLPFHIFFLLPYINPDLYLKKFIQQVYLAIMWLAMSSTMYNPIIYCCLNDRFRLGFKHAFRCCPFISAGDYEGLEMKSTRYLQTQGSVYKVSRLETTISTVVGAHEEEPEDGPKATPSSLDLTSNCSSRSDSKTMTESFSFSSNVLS
Sequence of rat µ opioid receptor (rat) (P33535 whole entry): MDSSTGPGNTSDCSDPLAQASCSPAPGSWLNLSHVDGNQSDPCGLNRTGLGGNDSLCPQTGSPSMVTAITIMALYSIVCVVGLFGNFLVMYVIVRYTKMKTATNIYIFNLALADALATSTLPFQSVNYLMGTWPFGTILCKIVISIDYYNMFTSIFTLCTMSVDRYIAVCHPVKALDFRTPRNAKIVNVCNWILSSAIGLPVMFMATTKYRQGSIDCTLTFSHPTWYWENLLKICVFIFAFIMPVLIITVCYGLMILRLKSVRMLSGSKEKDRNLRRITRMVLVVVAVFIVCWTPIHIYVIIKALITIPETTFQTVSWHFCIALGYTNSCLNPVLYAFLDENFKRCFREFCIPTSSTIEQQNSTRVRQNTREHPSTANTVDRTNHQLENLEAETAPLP
Sequence of δ opioid receptor of the mouse isolated vas deferens (mouse) (P32300 whole entry, stated change not applied): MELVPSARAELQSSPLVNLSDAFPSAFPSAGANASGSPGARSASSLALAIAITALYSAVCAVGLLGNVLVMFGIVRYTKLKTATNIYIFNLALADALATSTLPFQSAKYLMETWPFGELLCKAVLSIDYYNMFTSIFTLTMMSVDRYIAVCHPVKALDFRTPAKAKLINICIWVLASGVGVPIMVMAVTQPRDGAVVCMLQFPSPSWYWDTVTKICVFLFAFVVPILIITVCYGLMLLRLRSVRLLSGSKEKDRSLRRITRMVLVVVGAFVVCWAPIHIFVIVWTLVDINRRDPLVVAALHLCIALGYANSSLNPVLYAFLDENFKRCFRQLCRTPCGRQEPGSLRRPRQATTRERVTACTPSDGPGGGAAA
Sequence of human δ opioid receptor (human) (P41143 whole entry, stated change not applied): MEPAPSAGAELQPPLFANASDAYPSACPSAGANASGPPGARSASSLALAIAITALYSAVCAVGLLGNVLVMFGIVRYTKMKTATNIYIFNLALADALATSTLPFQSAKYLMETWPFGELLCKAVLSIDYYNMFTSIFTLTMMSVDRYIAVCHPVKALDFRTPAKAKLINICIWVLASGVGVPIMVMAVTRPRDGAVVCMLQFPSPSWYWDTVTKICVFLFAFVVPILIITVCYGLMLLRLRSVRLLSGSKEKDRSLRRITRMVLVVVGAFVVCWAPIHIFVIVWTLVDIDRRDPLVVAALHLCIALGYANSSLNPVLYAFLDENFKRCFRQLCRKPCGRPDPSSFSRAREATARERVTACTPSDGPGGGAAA
Sequence of guinea pig NK1 receptor (guinea pig) (P30547 whole entry): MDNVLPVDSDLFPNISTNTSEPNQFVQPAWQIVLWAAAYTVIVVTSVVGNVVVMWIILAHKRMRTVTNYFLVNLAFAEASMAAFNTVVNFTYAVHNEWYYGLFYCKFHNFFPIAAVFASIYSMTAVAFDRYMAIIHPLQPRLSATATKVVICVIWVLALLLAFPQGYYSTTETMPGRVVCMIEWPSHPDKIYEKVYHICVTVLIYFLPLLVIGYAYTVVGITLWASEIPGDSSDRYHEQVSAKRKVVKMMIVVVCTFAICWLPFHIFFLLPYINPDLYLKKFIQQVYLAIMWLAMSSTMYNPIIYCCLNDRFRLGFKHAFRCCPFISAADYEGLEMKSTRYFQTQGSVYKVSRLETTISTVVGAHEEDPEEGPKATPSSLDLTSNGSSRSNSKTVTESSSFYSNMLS
Sequence of µ opioid receptor of the guinea pig isolated ileum (guinea pig) (P97266 whole entry): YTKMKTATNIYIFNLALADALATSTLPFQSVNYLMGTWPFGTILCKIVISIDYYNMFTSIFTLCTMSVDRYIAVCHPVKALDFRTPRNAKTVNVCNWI

In turn, “Tyr-D-Ala-Trp-O-3′,5′(CF3)2-Bzl (NP43) (peptide)” yielded a GPI SP-antagonist Ke in test [1] of 49.4 nM. Besides, in [2], the GPI µ-agonist IC50 was found to be 3.3 % at 1 µM. In test [3], this substance gave an MVD δ-agonist IC50 of 5.5 % at 1 µM.

“[3H]-[D-Ala2,NMePhe4,Gly5-ol]enkephalin (peptide)”: in test [4], the [35S]GTP-γ-S binding EC50 was 37 nM, the [35S]GTP-γ-S binding Emax was found to be 150%, the [35S]GTP-γ-S binding LogEC50 was -7.4 and the [35S]GTPγS binding EC50 came out at 37 nM. In test [4], this substance came in with a [35S]GTPγS binding Emax of 150% and a [35S]GTPγS binding LogEC50 of -7.4. This substance registered a Kd in test [5] of 0.5 nM. Moreover, the [35S]GTP-γ-S binding LogEC50 in test [6] was -7.44.

In test [3], “DMT-D-Ala-Trp-O-3′,5′(CF3)2-Bzl (NP48) (peptide)” registered an MVD δ-agonist IC50 of 408 nM.

In the case of “Tyr[DCysGlyPheDCys]ProLeuTrpNHBn(CF3)2 (TY037) (peptide)”, in test [4], the GTP binding rMOR EC50 came out at 52.9 nM and the GTP binding rMOR Emax stood at 8%. Also, in test [7], the GTP binding hDOR EC50 was 98.2 nM and the GTP binding hDOR Emax came out at 26%. Moreover, the Ki in test [8] is 7.8 nM. The substance also yielded an inhibition constant Ki with rat NK1 receptor (rat) [9] of 45.5 nM. Moreover, in test [10], the inhibition constant (Ki) stood at 51.5 nM.

Regarding Tyr-Gly-Trp-O-3′,5′(CF3)2-Bzl (peptide), the inhibition constant Ki was found to be 0.003 nM in [11] and 0.36 nM in the test with rat NK1 receptor (rat) [12].

On to c[D-Pen2,D-Pen5]enkephalin (peptide), for which the Kd in [13] was 0.45 nM.

Substance “TyrDAlaGlyPheMetCLeuLeuTrpOBn(CF3)2 (TY021) (peptide)” registered a GTP binding rMOR EC50 in test [4] of 53.8 nM. In test [4], this substance registered a GTP binding rMOR Emax of 51.4%. Besides, the GTP binding hDOR EC50 in test [7] amounted to 0.26 nM. In [7], this substance yielded a GTP binding hDOR Emax of 41.1%. The Ki in [8] amounted to 5 nM; with rat NK1 receptor (rat) [9], 7.75 nM; in test [10], 112 nM; in test [14] it was 0.066 nM.

“DMT-D-Ala-Trp-O-3′,5′(CF3)2-Bzl (peptide)”: the GTP EC50 in test [4] stood at 1.6 nM; in test [7], 11.5 nM. Moreover, the inhibition constant Ki in test [11] is 0.016 nM; with rat NK1 receptor (rat) [12] it was 0.28 nM; in test [15] it was 0.3 nM; in [16], 0.8 nM.

On to Biphalin (peptide), for which, in test [3], the MVD (δ) IC50 came to 2.7 nM and the MVD (δ) opioid agonist IC50 was 2.7 nM.

In test [7], “[3H]-c[D-Pen2,D-Pen5]enkephalin (peptide)” displayed a [35S]GTP-γ-S binding EC50 of 1.6 nM, a [35S]GTP-γ-S binding Emax of 69%, a [35S]GTP-γ-S binding LogEC50 of -8.8 and a [35S]GTPγS binding EC50 of 1.6 nM. For the same substance, in [7], the [35S]GTPγS binding Emax was 69% and the [35S]GTPγS binding LogEC50 is -8.8. The equilibrium dissociation constant (Kd) in [17] stood at 0.45 nM.

As for “Tyr-D-Ala-Gly-pFPhe-O-3′,5′(CF3)2-Bzl (NP62) (peptide)”, the GPI SP-antagonist Ke in [1] came out at 51.8 nM. In test [3], this substance registered an MVD δ-agonist IC50 of 184 nM.

Regarding “Tyr-Gly-Trp-O-3′,5′(CF3)2-Bzl (NP42) (peptide)”, the GPI µ-agonist IC50 in [2] turned out to be 2.6 % at 1 µM.

As to “Tyr-D-Ala-Trp-O-3′,5′(CF3)2-Bzl (peptide)”, the GTP EC50 in test [4] came to 168 nM; in [7], 90.9 nM. Besides, the Ki in test [11] came out at 0.004 nM; with rat NK1 receptor (rat) [12], 2.94 nM; in test [15] it was 178 nM; in [16], 100 nM.
